{"source": "patent US20240336907A1", "about": "“NOVEL ENDO-ß-N-ACETYLGLUCOSAMINIDASE” (priority 2020, published 2024)", "key": {"mAb1 [1]": {"test_system": "mAb1", "assay": "Evaluation of reaction temperature for hydrolysis of mAb1 sugar chain", "format": "biochemical", "description": "The hydrolysis rates of a sugar chain with Endo-Si and EndoS at individual temperatures were measured as follows. A 50 mM Tris-HCl buffer (pH 7.5) solution (50 μL) containing 0.1 mg of mAb1 and 10 ng of Endo-Si WT or EndoS WT was prepared and incubated at each temperature of 27, 29, 31, 35, 37, 40, 43, 46, 48, and 50° C. Each of the reaction solutions at a half hour after initiation of a reaction was sampled and the hydrolysis rate of a sugar chain was calculated in accordance with the aforementioned method."}, "[2]": {"assay": "Substrate specificity in various 2-AB labeled sugar chains (HPLC)", "format": "biochemical", "conditions": "37° C., 24 hours", "description": "The substrate specificity of Endo-Si in various sugar chains were measured as follows. A 50 mM Tris-HCl buffer (pH 7.5) solution (10 μL) containing 5 pmol of each of various sugar chains labeled with 2-AB (manufactured by Agilent Technologies) and 20 μg of Endo-Si WT, was prepared and incubated at 37° C. for 24 hours, and thereafter treated at 95° C. for 5 minutes to terminate the reaction. The reaction solution was subjected to HPLC analysis carried out under the following conditions.\n[HPLC Analysis Conditions]\nHPLC apparatus: 1200 Infinity LC (manufactured by Agilent Technologies)\nColumn: ACQUITY UPLC Glycan Amide 130 Å, 1.7 μm, 2.1×150 mm (manufactured by Waters)\nColumn temperature: 40° C.\nDetector: Fluorescence detector RF-20Axs (manufactured by Shimadzu Corporation)\nMobile phase A: H2O+0.1% HCOOH\nMobile phase B: Acetonitrile+0.1% HCOOH\nGradient (mobile phase B %): 90% (0 minute), 40% (25 minutes)\nEnzyme activity was calculated based on the peak area ratio between a substrate and a hydrolysate, GlcNAc-2AB. […] Of them, the activity on (specificity to) G0 sugar chain is the highest."}, "IgA": {"test_system": "IgA", "assay": "Substrate specificity in various antibodies (band shift in electrophoresis)", "format": "biochemical, human", "conditions": "10 μg substrate, 1 μg enzyme, 37° C., pH 7.5, two hours", "description": "(§1) The hydrolysis activities of Endo-Si, EndoS and PNGaseF on various antibodies were measured as follows. A 50 mM Tris-HCl buffer (pH 7.5) solution (50 μL) containing each of various substrates (10 μg), and 1 μg Endo-Si WT was prepared and incubated at 37° C. As the substrate, human IgG1-4, IgA, and IgE (all manufactured by Sigma Aldrich) were used. As the controls, 1 μg of EndoS WT and 500 U PNGase F PRIME (manufactured by N-zyme Scientifics) were used. Two hours after initiation of the reaction, a sample was taken from the reaction solution and analyzed for protein by a fully automated electrophoresis system mentioned above.\n(§2) When a sugar chain is hydrolyzed by addition of an enzyme, the band of a protein shifts to the lower molecular weight side compared to when the enzyme was not added."}, "IgE": {"test_system": "IgE", "assay": "Substrate specificity in various antibodies (band shift in electrophoresis)", "format": "biochemical, human", "conditions": "10 μg substrate, 1 μg enzyme, 37° C., pH 7.5, two hours", "description": "as §1, §2"}, "(Fucα1,6)GlcNAc-mAb2": {"test_system": "(Fucα1,6)GlcNAc-mAb2", "assay": "Transglycosylation activity with sugar chain oxazoline [N3-PEG(3)]-MSG1(9)-Ox as donor", "format": "biochemical", "conditions": "donor [N3-PEG(3)]-MSG1(9)-Ox (8 eq.), enzyme 1.25 μg, 28° C., pH 7.5", "description": "Transglycosylation activity was evaluated as follows. […] A sample was taken from each of the reaction solutions at 1, 2, 4, 6, and 24 hours after initiation of the reaction and analyzed for protein by a fully automated electrophoresis system as mentioned above. In the chromatogram obtained, an unreacted product and transglycosylated molecule, mAb2-(MSG1-N3)2 were confirmed as discrete peaks. The transglycosylation rate was calculated based on the peak-area ratio between the unreacted product and the transglycosylated molecule in accordance with the following expression.\nTransglycosylation rate (%)=[[peak area of mAb2-(MSG1-N3)2-derived H chain]/{[peak area of (Fucα1,6)GlcNAc-mAb2-derived H chain]+[peak area of mAb2-(MSG1-N3)2-derived H chain]}]×100\nSimilarly, the transglycosylation rates of individual Endo-Si mutant enzymes at each time period for a reaction were calculated (Table 5)."}, "mAb1 [3]": {"test_system": "mAb1", "assay": "Evaluation of reaction pH for hydrolysis of mAb1 sugar chain", "format": "biochemical", "description": "The hydrolysis rates of a sugar chain with Endo-Si and EndoS at individual pH values were measured as follows. A 50 mM citric acid-sodium phosphate buffer (pH 5.0 or 5.5) solution, sodium phosphate buffer (pH 6.0, 6.5 or 7.0) solution or Tris-HCl buffer (pH 7.5, 8.0, 8.5 or 9.0) solution (50 μL for each) containing 0.1 mg of mAb1, and 10 ng of Endo-Si WT or EndoS WT, was prepared and incubated at 37° C. Each of the reaction solutions at a half hour after initiation of reaction was sampled and the hydrolysis rate of a sugar chain was calculated in accordance with the aforementioned method."}, "[4]": {"test_system": "trastuzumab (mAb1) N297-linked sugar chain", "assay": "Hydrolysis activity on antibody sugar chain (sugar chain hydrolysis rate, fully automated electrophoresis)", "format": "biochemical", "conditions": "0.5 hours after initiation of the reaction; 0.1 mg mAb1, 10 ng enzyme, 37° C., pH 7.5", "description": "The enzyme obtained in Example 2 was measured for hydrolysis activity by the following method. At this time, EndoS was used as a comparative subject.\nIn sterile water (5 mL), mAb1 (60 mg) was dissolved. The solution was replaced with 50 mM Tris-HCl buffer (pH 7.5) while concentrating the solution by Vivaspin 20 (30,000 MWCO, PES, manufactured by Sartorius).\nA reaction solution containing the mAb1 (0.1 mg) and 10 ng of the enzyme (total volume 50 μL) was prepared and incubated at 37° C. Each of the reaction solutions at 0.5, 1, and 2 hours after initiation of the reaction was sampled and analyzed for protein by a fully automated electrophoresis system as mentioned above. In the chromatogram obtained, an unreacted product and a hydrolysate are confirmed as discrete peaks. From the peak-area ratio between the unreacted product and the hydrolysate, the hydrolysis rate of a sugar chain was calculated in accordance with the following expression."}, "human IgG1-4": {"test_system": "human IgG1-4", "assay": "Substrate specificity in various antibodies (band shift in electrophoresis)", "format": "biochemical", "conditions": "10 μg substrate, 1 μg enzyme, 37° C., pH 7.5, two hours", "description": "as §1, §2"}}}
{"molecule": "Endo-Si WT: endo-β-N-acetylglucosaminidase derived from Streptococcus iniae, amino acid positions 34 to 928 in SEQ ID NO: 2 (protein, listed as Streptococcus iniae) REELKMPNGLEQSIADVEAKIDALTYLSKNSKDEFKHSMYEIPSNREHKPVSPKQALQNAKKADAQAERLAKMTIPKKEELKALEGPLYGGYFRTWQDKTSDPTETNKVNSFGELPKEVDLAFVFHDYTKDYSLFWEELATKQVPKLNKQGTRVIRTIPWRFLSGADHSDISADKEKFPNTEAGNKALAKAIVDEYVYKYNLDGLDIDIERDSVPKVNDKEDPEALARTVEVFKEIGKLIGANGADKSRLLIMDTTYTAEENPLIKETAQYLNLLLVQVYGFSGENGNYLHHKNILDETSSMEGRWQGYSKYIRPEQYMVGFSFYEEKDFNNRWKDINEEDPSDPHIGEKIQGTRAERYAKWQPKTGGLKGGLFSYAIDRDGVAQPKQKTEHPELDKIVKSEYKVSKALKKLMMTDDQYQPIDQSDFPDKALRESIIKQVGTRRGDLERFKGTLRLDNPEIKDLTGLNKLKRVAKLELINLPKITKIDKDDLPQNLKPLTDNQKSNLEIKGTYDDSKLYKDIPAFDLVISGLSGLESLDISGHQRDTLSGIDASTLPSLKAINISDNHFDLAQGTENRHILDTILATLAKNGASTASFDKQKPKGLYPESYSTAPLHLQVGQGKINVIDDLIFGTRTNQNTLINTENDFEAYKEQTIQGKPFIAPDYLYDNFKVSYKEYSASIVDSTLAETTDKTIDTAKAETYQVTVSNKDGKTVHSVKVIVGDEKPMMVNLAQDAKIIGTDNMTQSAKVFDGQKDQFLLSWNKDSSVIFELKTPGTAKHWRFFDDGKNDSVTLSVFKGDASNFETEKDKAENWVEITKDSRKNDDKVFSSPLEVDNAKYLKVTIKKEAKYIYFNELQILGYPGVVAKKTADDLRPTEADKSDDKSDKNDTEAK", "values": [{"measurement": "hydrolysis activity compared with EndoS", "setting": "mAb1 [1]; at individual temperatures 27 to 50° C.", "result": "higher hydrolysis activity than EndoS"}, {"measurement": "optimum reaction temperature for hydrolysis: particularly around", "setting": "mAb1 [1]; mAb1, pH 7.5, half hour reaction, particularly around (35° C. to 39° C.)", "result": "around 37 °C"}, {"measurement": "Relative activity", "setting": "[2]; substrate 2-AB G0 (agafacto biantennary), reference regarded as 100%", "result": 100, "unit": "%"}, {"measurement": "Relative activity", "setting": "[2]; substrate 2-AB G2 (asfato biantennary), activity against G0 sugar chain regarded as 100%", "result": 73.2, "unit": "%"}, {"measurement": "Relative activity", "setting": "[2]; substrate 2-AB G2F (core-fucosylated biantennary), activity against G0 sugar chain regarded as 100%", "result": 50.1, "unit": "%"}, {"measurement": "Relative activity", "setting": "[2]; substrate 2-AB G2S2 (a2,6) (sialyl biantennary), activity against G0 sugar chain regarded as 100%", "result": 17.1, "unit": "%"}, {"measurement": "Relative activity", "setting": "[2]; substrate 2-AB G3 (triantennary), activity against G0 sugar chain regarded as 100%", "result": "Not detected"}, {"measurement": "Relative activity", "setting": "[2]; substrate 2-AB Man3, activity against G0 sugar chain regarded as 100%", "result": 7.2, "unit": "%"}, {"measurement": "Relative activity", "setting": "[2]; substrate 2-AB Man 5, activity against G0 sugar chain regarded as 100%", "result": 1.9, "unit": "%"}, {"measurement": "Relative activity", "setting": "[2]; substrate 2-AB Man6, activity against G0 sugar chain regarded as 100%", "result": 6.6, "unit": "%"}, {"measurement": "Relative activity", "setting": "[2]; substrate 2-AB Man8, activity against G0 sugar chain regarded as 100%", "result": 5.2, "unit": "%"}, {"measurement": "Relative activity", "setting": "[2]; substrate 2-AB Man9, activity against G0 sugar chain regarded as 100%", "result": 3.3, "unit": "%"}, {"measurement": "hydrolysis activity on IgA", "setting": "IgA", "result": "no hydrolysis activity"}, {"measurement": "hydrolysis activity on IgE", "setting": "IgE", "result": "no hydrolysis activity"}, {"measurement": "Transglycosylation rate", "setting": "(Fucα1,6)GlcNAc-mAb2; 1 h", "result": 0.0, "unit": "%"}, {"measurement": "Transglycosylation rate", "setting": "(Fucα1,6)GlcNAc-mAb2; 2 h", "result": 0.0, "unit": "%"}, {"measurement": "Transglycosylation rate", "setting": "(Fucα1,6)GlcNAc-mAb2; 4 h", "result": 0.0, "unit": "%"}, {"measurement": "Transglycosylation rate", "setting": "(Fucα1,6)GlcNAc-mAb2; 6 h", "result": 0.0, "unit": "%"}, {"measurement": "Transglycosylation rate", "setting": "(Fucα1,6)GlcNAc-mAb2; 24 h", "result": 0.0, "unit": "%"}, {"measurement": "hydrolysis activity compared with EndoS", "setting": "mAb1 [3]; at around pH 6.7 or more", "result": "higher than that of EndoS"}, {"measurement": "optimum pH for hydrolysis: particularly around", "setting": "mAb1 [3]; mAb1, 37° C., half hour reaction, particularly around (pH 7.2 to 8.0)", "result": "~7.5", "unit": "pH"}, {"measurement": "hydrolysis rate of a sugar chain", "setting": "[4]", "result": 57.4, "unit": "%"}, {"measurement": "hydrolysis activity on the 4 subclasses of IgG", "setting": "human IgG1-4", "result": "exhibited hydrolysis activity"}]}
